Consider nine substances from patent EP1237001A1, “SCREENING METHOD” (Takeda Chemical Industries, Ltd., priority 1999, dated 2001).

In the first assay the target is T1, FM-3 (Homo sapiens, UniProt Q9HB89).
T1 sequence (Q9HB89 24-426 limits assumed): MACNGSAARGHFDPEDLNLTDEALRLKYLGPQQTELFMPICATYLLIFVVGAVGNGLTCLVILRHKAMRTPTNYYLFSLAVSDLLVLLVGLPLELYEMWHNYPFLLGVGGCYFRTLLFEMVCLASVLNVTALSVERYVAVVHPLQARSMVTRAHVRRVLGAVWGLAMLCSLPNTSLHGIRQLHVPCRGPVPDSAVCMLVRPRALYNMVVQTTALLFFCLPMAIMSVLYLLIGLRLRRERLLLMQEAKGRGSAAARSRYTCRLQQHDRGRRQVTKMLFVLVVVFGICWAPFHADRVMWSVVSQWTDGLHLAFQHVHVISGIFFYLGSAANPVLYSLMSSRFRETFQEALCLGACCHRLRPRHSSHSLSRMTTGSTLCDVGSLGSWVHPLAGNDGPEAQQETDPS
Experiment: not given
Conditions: labeled ligand; cells confirmed to express FM-3 on the cell membrane; Tan et al., Genomics 52, 223-229, 1998; cited from earlier work.
Turning to “Neurotensin: labeled Neurotensin, peptide ligand of the Neurotensin receptor”, the “binding with cells expressing FM-3” value is “did not bind”.

The next assay has as its target T2, FM-3 (Homo sapiens, UniProt Q9HB89).
T2 sequence (Q9HB89 1-426): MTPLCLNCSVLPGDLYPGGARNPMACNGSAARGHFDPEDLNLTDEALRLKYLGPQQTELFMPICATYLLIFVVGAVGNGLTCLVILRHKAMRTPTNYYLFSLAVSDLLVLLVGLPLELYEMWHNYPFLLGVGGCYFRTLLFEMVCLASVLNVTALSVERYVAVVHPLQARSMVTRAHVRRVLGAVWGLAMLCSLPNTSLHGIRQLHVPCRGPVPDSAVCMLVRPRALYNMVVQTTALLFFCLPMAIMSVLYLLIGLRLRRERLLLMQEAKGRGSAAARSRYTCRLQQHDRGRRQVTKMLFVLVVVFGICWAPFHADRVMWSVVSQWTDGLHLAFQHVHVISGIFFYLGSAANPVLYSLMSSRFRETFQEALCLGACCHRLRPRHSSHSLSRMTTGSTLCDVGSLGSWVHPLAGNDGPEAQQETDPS
Experiment: not given
Particulars: free intracellular calcium ion release measured as an index; Tan et al.; cited from earlier work.
Take “VIP: vasoactive intestinal peptide, examined for activation of FM-3”: the “activation of FM-3” value was “not detected”.

Turning to “calcitonin: peptide examined for activation of FM-3”, the “activation of FM-3” value was “not detected”.

For the substance endothelin, the “activation of FM-3” value is listed as “not detected”.

“galanin: peptide examined for activation of FM-3”: the “activation of FM-3” value was “not detected”.

Turning to “growth hormone releasing hormone: peptide examined for activation of FM-3”, the “activation of FM-3” value is reported as “not detected”.

On to “somatostatin: peptide examined for activation of FM-3”, for which the “activation of FM-3” value is “not detected”.

Take thyrotropin releasing hormone: the “activation of FM-3” value was “not detected”.

Another assay concerns the target T1, FM-3. Nature of the assay: site sensor assay of cell-stimulating activity (extracellular acidification rate). In kind it is cell-based. Set-up: expressed in transfected cells. Conditions: FM-3-expressing CHO cells versus mock CHO cells; exposure for 7 minutes and 2 seconds; 3 cycles before exposure set as 100 %; Fig. 1. On the procedure: Pig Neuromedin U-8 at the concentration indicated in FIG. 1 was added to FM-3-expressing CHO cells (●) and mock CHO cells (○) for 7 minutes and 2 seconds in the site sensor assay. The maximum value of acidification rate in the reaction was plotted.
FM-3-expressing CHO cells and mock CHO cells, which were cultured in a cell-cultured container, were digested with trypsin and dissociated. The numbers of cells are counted. Then, the cells were inoculated in the capsules for site sensor (2.7 x 10^5 cells/capsule). After incubating them overnight, the capsules containing the cells were transferred to the sensor chamber for measurement, and then mounted to the workstation of the site sensor. The portion containing the cells was refluxed with low-buffered RMPI medium supplemented with 0.1% bovine serum albumin, and it was left still until the acidification rate became stable. The measurement of the acidification rate was made during pumping cycle of ON for 80 seconds and OFF for 40 seconds(2 minutes to one cycle). A rate of change in extracellular pH from 8 to 30 seconds after the pumping off was calculated as an acidification rate with the site sensor.
Pig Neuromedin-8 (BACHEM, H-5505, SEQ ID NO:5) was dissolved in distilled water at the concentration of 10mM, and then the gradually diluted solutions were prepared with low buffered RPMI medium containing 0.1% BSA. […]
For “Pig Neuromedin-8: pig Neuromedin U-8, peptide of 8 amino acid residues, BACHEM, H-5505, SEQ ID NO:5”, the “cell-stimulating activity (acidification rate)” value is “detected in a does-dependent manner and specific to FM-3-expressing CHO cells”.
